This is an account of results in PMC12453405.

Test in all cases: quartz crystal microbalance (QCM); purified N protein injected first onto the coated quartz crystal, then GST, then Grb2-GST; PBS pH 7.4, flow 60 μl/min; Tris-HCl pH 8.0 between injections; binding ratio = amplitude difference of Grb2-GST before and after binding over the amplitude of N protein
The target in experiment [1] is wPDCoV-N (His-fused PDCoV N protein) (porcine deltacoronavirus (PDCoV)).
Experiment [2] concerns the target mPDCoV-N (P61A/P292A) (porcine deltacoronavirus (PDCoV)).
Experiment [3] deals with PEDV-N (His-fused N protein of Alphacoronavirus PEDV) (PEDV).

Turning to “Grb2-GST (pGEX-Grb2) (from UniProt B6E241 1-217) (natural protein)”, the binding ratio in experiment [1] was found to be 31.6%; in experiment [2], 19.7%; in experiment [3], 23.5%.
